Measurements published in patent US20110262525A1, “METHODS OF TREATMENT” (SCHERING CORPORATION, priority 2006, published 2011).
Marks after values point to notes of the source that are not given here.

Legend:
[1] = tested on: Human melanoma cells (A375-SM); assay: Cell-Titer Glo assay, A375-SM melanoma; type: cell-based; settings: 0.000256-100 nM antibody
[2] = tested on: BT-29 xenograft (Rhabdoid); assay: PPTP in vivo xenograft BT-29; settings: BT-29 (Rhabdoid) xenograft, 0.5 mg per mouse ip twice weekly for four weeks
Experimental: (§1) The PPTP includes a molecularly characterized in vitro panel of cell lines (n=27) and in vivo panel of xenografts (n=61) representing most of the common types of childhood solid tumors and childhood ALL (acute lymphoblastic leukemia). LCF/HCA anti-IGF1R antibody was tested against the PPTP in vitro panel at concentrations ranging from 0.01 nM to 100 nM; and was tested against the PPTP in vivo panel at a dose of 0.5 mg per mouse administered twice weekly for four weeks via intraperitoneal injection. Three measures of antitumor activity were used: 1) response criteria modeled after the clinical setting; 2) treated-to-control (T/C) tumor volume at day 21; and 3) a time to event (4-fold increase in tumor volume) measure based on the median EFS of treated and control lines (intermediate activity required EFS (event-free survival) T/C>2, and high activity additionally required a net reduction in median tumor volume at the end of the experiment).
(§2) Stage 1 testing involved testing an agent across the entire PPTP panel of childhood cancer xenograft lines at its maximum tolerated dose (MTD) or at a dose selected based on PK/PD (pharmacokinetic/pharmacodynamic) studies using adult preclinical models.
(§3) In vivo solid tumor testing: For each xenograft line, 10 mice bearing subcutaneous (SC) tumors initiated treatment when the tumors were between 0.2-0.5 cm^3 in volume. Two perpendicular tumor diameters were measured at once weekly intervals with digital vernier calipers. Assuming tumors to be spherical, volumes were calculated from the formula (π/6)×d3, where d represented the mean diameter.
(§4) Drug: LCF/HCA was dissolved in 20mM sodium acetate pH 5 buffer containing 150 mM sodium chloride, and administered intraperitoneally twice weekly for 4 consecutive weeks at a dose of 0.5 mg per animal. […]
(§5) Median Group Response: Each individual mouse in each treatment group was assigned a response score (see Tables above) and a median score for the treatment group was calculated and then each treatment group was assigned an overall response according to the table below. […]

KT-10 xenograft (Wilms) = assay: PPTP in vivo xenograft KT-10; settings: KT-10 (Wilms) xenograft, 0.5 mg per mouse ip twice weekly for four weeks
Experimental: as §1, §2, §3, §4, §5

KT-11 xenograft (Wilms) = assay: PPTP in vivo xenograft KT-11; settings: KT-11 (Wilms) xenograft, 0.5 mg per mouse ip twice weekly for four weeks
Experimental: as §1, §2, §3, §4, §5

KT-13 xenograft (Wilms) = assay: PPTP in vivo xenograft KT-13; settings: KT-13 (Wilms) xenograft, 0.5 mg per mouse ip twice weekly for four weeks
Experimental: as §1, §2, §3, §4, §5

[3] = tested on: CHLA258 xenograft (Ewings); assay: PPTP in vivo xenograft CHLA258; set-up: key to EFS activity notation (high, intermediate, indeterminate): high (!); intermediate (#); indeterminate (^)
Experimental: as §1, §2, §3
(§6) Drug: LCF/HCA was dissolved in 20mM sodium acetate pH 5 buffer containing 150 mM sodium chloride, and administered intraperitoneally twice weekly for 4 consecutive weeks at a dose of 0.5 mg per animal. The antibody was provided to each testing site in coded vials for blinded testing according the PPTP's standard operating procedures.
(§7) Median Group Response: Each individual mouse in each treatment group was assigned a response score (see Tables above) and a median score for the treatment group was calculated and then each treatment group was assigned an overall response according to the table below.
(§8) Statistical Methods: Event-free survival (EFS) distributions of each treatment group were compared to the EFS distribution of the respective control group using the exact log rank test. P-values were 2-sided & were not adjusted for multiple comparisons given the exploratory nature of this study. P-values<0.05 were considered to be significant.

[4] = tested on: Rh28 xenograft (ALV Rhabdomyosarcoma); assay: PPTP in vivo xenograft Rh28; set-up: key to EFS activity notation (high, intermediate, indeterminate): high (!); intermediate (#); indeterminate (^)
Experimental: as §1, §2, §3, §6, §7, §8

[5] = tested on: BT-44 xenograft (Ependymoma); assay: PPTP in vivo xenograft BT-44; set-up: key to EFS activity notation (high, intermediate, indeterminate): high (!); intermediate (#); indeterminate (^); settings: BT-44 (Ependymoma) xenograft, 0.5 mg per mouse ip twice weekly for four weeks
Experimental: as §1, §2, §3, §6, §7, §8

[6] = tested on: BT-39 xenograft (Glioblastoma); assay: PPTP in vivo xenograft BT-39; settings: BT-39 (Glioblastoma) xenograft, 0.5 mg per mouse ip twice weekly for four weeks
Experimental: as §1, §2, §3, §4, §5

[7] = tested on: D456 xenograft (Glioblastoma); assay: PPTP in vivo xenograft D456
Experimental: as §1, §2, §3, §4, §5

[8] = tested on: NB-1771 xenograft (Neuroblastoma); assay: PPTP in vivo xenograft NB-1771; settings: NB-1771 (Neuroblastoma) xenograft, 0.5 mg per mouse ip twice weekly for four weeks
Experimental: as §1, §2, §3, §4, §5

[9] = tested on: CHLA-79 xenograft (Neuroblastoma); assay: PPTP in vivo xenograft CHLA-79; set-up: key to EFS activity notation (high, intermediate, indeterminate): high (!); intermediate (#); indeterminate (^); settings: CHLA-79 (Neuroblastoma) xenograft, 0.5 mg per mouse ip twice weekly for four weeks
Experimental: as §1, §2, §3, §6, §7, §8

[10] = tested on: OS-17 xenograft (Osteosarcoma); assay: PPTP in vivo xenograft OS-17; settings: OS-17 (Osteosarcoma) xenograft, 0.5 mg per mouse ip twice weekly for four weeks
Experimental: as §1, §2, §3, §6, §7, §8

[11] = tested on: ALL-17 xenograft (ALL B-precursor); assay: PPTP in vivo leukemia xenograft ALL-17; set-up: key to EFS activity notation (high, intermediate, indeterminate): high (!); intermediate (#); indeterminate (^); settings: ALL-17 (ALL B-precursor) xenograft; 0.5 mg per mouse ip twice weekly for four weeks
Experimental: as §1, §2
In vivo acute lymphoblastic leukemia testing: For each xenograft line, 8 mice were inoculated with 3-5×10^6 mononuclear cells purified from the spleens of secondary recipient mice. Engraftment was monitored weekly by flow cytometry, and treatment was initiated when the proportion of human CD45+ cells in the peripheral blood reached 1%. The proportion of human CD45+ cells in the peripheral blood was monitored weekly throughout the course of treatment.
as §6, §7, §8

[12] = 0.5 mg per mouse ip twice weekly for four weeks
[13] = day 21, 0.5 mg per mouse ip twice weekly for four weeks

B1: LCF/HCA: fully human anti-IGF1R antibody comprising the mature 19D12/15H12 light chain F (LCF) and mature heavy chain A (HCA) (antibody, V domains shown)
VH: EVQLVQSGGGLVHPGGSLRLSCAASGFTFSSFAMHWVRQAPGKGLEWISVIDTRGATYYADSVKGRFTISRDNAKNSLYLQMNSLRAEDMAVYYCARLGNFYYGMDVWGQGTTVTVSS
VL: EIVLTQVPDFQSVTPKEKVTITCRASQSIGSSLHWYQQKPDQSPKLLIKYASQSLSGVPSRFSGSGSGTDFTLTINSLEAEDAAAYYCHQSSRLPHTFGGGTKVEIKRT
With B1 the “in vitro growth of melanoma cell line” value [1] was “in vitro growth inhibition”, the “EFS T/C” value [2] was 1.4 and the “Median Final RTV” value [2] was >4. The “Tumor Volume T/C” value ([2]; day 21) was 0.77, the “EFS T/C” value (KT-10 xenograft (Wilms)) was 1.3 and the “Median Final RTV” value (KT-10 xenograft (Wilms)) was >4. For the same molecule, the “Tumor Volume T/C” value (KT-10 xenograft (Wilms); day 21) was 0.43, the “EFS T/C” value (KT-11 xenograft (Wilms)) was 1 and the “Median Final RTV” value (KT-11 xenograft (Wilms)) was >4. For the same molecule, the “Tumor Volume T/C” value (KT-11 xenograft (Wilms); day 21) was 0.99, the “EFS T/C” value (KT-13 xenograft (Wilms)) was 1.1 and the “Median Final RTV” value (KT-13 xenograft (Wilms)) was >4. For the same molecule, the “Tumor Volume T/C” value (KT-13 xenograft (Wilms); day 21) was 0.84, the “EFS T/C” value [3, 12] was 4.2 and the “EFS activity notation (high, intermediate, indeterminate)” value (“EFS activity notation” for short) [3, 12] was “#”. The “Median Final RTV” value [3, 12] was >4#, the “Overall Group Response” value [3, 12] was “PD2 (1 < MS ≦ 3)” and the “Tumor Volume T/C” value [3, 13] was 0.29. For the same molecule, the “EFS T/C” value [4, 12] was > 2.6, the “EFS activity notation” value [4, 12] was “#” and the “Median Final RTV” value [4, 12] was 2.9#. For the same molecule, the “Overall Group Response” value [4, 12] was “PD2 (1 < MS ≦ 3)”, the “Tumor Volume T/C” value [4, 13] was 0.36 and the “EFS T/C” value [5] was 2.6. For the same molecule, the “EFS activity notation” value [5] was “#”, the “Median Final RTV” value [5] was >4# and the “Overall Group Response” value [5] was “PD2 (1 < MS ≦ 3)”. The “Tumor Volume T/C” value ([5]; day 21) was 0.66, the “EFS T/C” value [6] was 1.1 and the “Median Final RTV” value [6] was >4. The “Tumor Volume T/C” value ([6]; day 21) was 0.87, the “EFS T/C” value [7, 12] was 1.1 and the “Median Final RTV” value [7, 12] was >4. For the same molecule, the “Tumor Volume T/C” value [7, 13] was 0.77, the “EFS T/C” value [8] was 1.1 and the “Median Final RTV” value [8] was >4. The “Tumor Volume T/C” value ([8]; day 21) was 0.64, the “EFS T/C” value [9] was 2.1 and the “EFS activity notation” value [9] was “#”. For the same molecule, the “Median Final RTV” value [9] was 3.9#, the “Overall Group Response” value [9] was “PD2 (1 < MS ≦ 3)” and the “Tumor Volume T/C” value ([9]; day 21) was 0.69. For the same molecule, the “EFS T/C” value [10] was 2, the “Median Final RTV” value [10] was >4 and the “Overall Group Response” value [10] was “PD2 (1 < MS ≦ 3)”. For the same molecule, the “Tumor Volume T/C” value ([10]; day 21) was 0.55, the “EFS T/C” value [11] was 3.1 and the “EFS activity notation” value [11] was “#”. For the same molecule, the “Median Final RTV” value [11] was >25# and the “Overall Group Response” value [11] was “PD2 (1 < MS ≦ 3)”.
